Laboratory results from patent US20250152742A1, “COMPOSITIONS AND METHODS FOR NEUROLOGICAL DISEASES” (Trames Bio, Inc., priority 2022, published 2025).

Experiments:
[1] = target: SEQ ID NO: 33 (CODA71) versus wild type α7-nAChR (Homo sapiens, UniProt P36544, F159M/H163T/I152M/R155K/V154L/W156N/Y151P); experiment: Sensitivity of parental chimera SEQ ID NO: 33 to ligands compared with wild type α7-nAChR
Source text: To generate LGICs that conduct anion current following exposure to non-native small molecule agonists of the human α7-nAChR, chimeric ligand gated ion channel (LGIC) receptors comprising the ligand binding domain derived from the human α7 nicotinic acetylcholine receptor (α7-nAChR) and the chloride-conducting ion pore domain derived from the human GlyR1α were genetically engineered. […] SEQ ID NO:33 was approximate 2-fold less sensitive to nicotine and approximately 3-fold and 10-fold more sensitive to AZD-0328 and Facinicline/RG3487, respectively, than wild type. CODA71 is described in detail in WO2019104307 and WO2021035179, which are incorporated herein in their entireties.

[2] = tested on: engineered receptors and wildtype nAchRa7 receptor expressed in HEK293 cells; experiment: Whole cell manual patch clamp electrophysiology, EC50, HEK293 cells; assay type: cell-based, human; details: for EC50: ligand TC-5619, HEK293 cell line, read-out: Manual patch clamp based EC50, TC-5619
Method: (§1) Using whole cell manual patch clamp electrophysiology in HEK293 cells, rat DRG neurons and rat hippocampal neurons, the EC50 of the various engineered receptors disclosed herein to Ach and non-native ligands was measured using the Hill equation with peak current measurements from escalating doses of ligand. The rheobase shift was also measured in rat DRG neurons, which reflects the efficacy of the receptors. To calculate the rheobase, first, the amount of current that can produce an action potential was determined. Then the ligand was added, followed by a step wise increase in the current injected up to 700 pA.
(§2) For manual patch clamp experiments, Cells plated on coverslips were visualized at 10x and 40x on an inverted fluorescence microscope (Olympus). Recordings were made with an Axopatch 200B amplifier and Digidata 1550B (Molecular Devices) at RT using 3-6 MOhm glass patch electrodes (Sutter, BF150-86-10). Unless otherwise stated, recordings were made in extracellular solution (ECS) containing: 140 mM sodium chloride, 4 mM potassium chloride, 1 mM magnesium chloride, 2 mM calcium chloride, 10 mM HEPES, and 10 mM D-(+)-glucose (pH=7.3 with sodium hydroxide, osmolarity=305-315 mOsm). An 8-line reservoir (AutoMate Scientific) in combination with an 8-channel zero-dead-volume perfusion pencil (AutoMate Scientific) was used for perfusion. Data was acquired using pClamp software (Molecular Devices). Traces were either analyzed in Clampfit (Molecular Devices) or using custom Python code. Plotting and statistics were performed in GraphPad Prism.
For dose-response, ligand-induced currents were recorded in voltage clamp mode. For HEK cell experiments, recordings took place in the normal ECS with a cesium-based internal solution containing: 140 mM cesium chloride, 5 mM potassium fluoride, 2 mM Calcium chloride, 2 mM magnesium chloride, 10 mM HEPES, and 10 mM EGTA (pH=7.2 with cesium hydroxide, osmolarity=290-295 mOsm). For DRG neuron experiments, cells were patched in normal ECS and then switched to an NMDG-based ECS to prevent endogenous cation currents, containing: 145 mM N-methyl-D-glucamine, 4 mM potassium chloride, 0.5 mM magnesium chloride, 0.5 mM calcium chloride, 10 mM HEPES, and 10 mM D-(+)-glucose (pH=7.4 with hydrochloric acid, osmolarity=305-315mOsm). […] Capacitance and series resistance were compensated. Drugs tested include acetycholine chloride and other synthetic compounds. Drug doses were applied for 1-10 sec until the peak of the current was observed, and washes occurred for at least 2 min between dose applications. The holding current was subtracted from the peak to find the current amplitude.
Cell culture: HEK 293 cells were routinely subcultured in DMEM with 10% fetal bovine serum (ThermoFisher Scientific). […]

[3] = tested on: engineered receptors expressed in rat DRG neurons; experiment: Manual patch clamp ligand-induced chloride currents / EC50, rat DRG neurons; assay type: cell-based; details: for EC50: ligand TC-5619, Rat DRG Neurons, read-out: Manual patch clamp based EC50, TC-5619
Method: as §1, §2
For dose-response, ligand-induced currents were recorded in voltage clamp mode. For HEK cell experiments, recordings took place in the normal ECS with a cesium-based internal solution containing: 140 mM cesium chloride, 5 mM potassium fluoride, 2 mM Calcium chloride, 2 mM magnesium chloride, 10 mM HEPES, and 10 mM EGTA (pH=7.2 with cesium hydroxide, osmolarity=290-295 mOsm). […]

[4] = HEK293 cells and cultured rat DRG sensory neurons

B1: CODA71: parental chimeric LGIC: human α7-nAChR ligand binding domain with GlyRα1 Cys-loop fused to human GlyRα1 ion pore domain (protein)
chain: MRCSPGGVWLALAASLLHVSLQGEFQRKLYKELVKNYNPLERPVANDSQPLTVYFSLSLLQIMDVDEKNQVLTTNIWLQMSWTDHYLQWNVSEYPGVKTVRFPDGQIWKPDILLYNSADERFDATFHTNVLVNSSGHCQYLPPGIFKSSCPMDLKNFPMDVQTCKLKFGSWSYGGWSLDLQMQEADISGYIPNGEWDLVGIPGKRSERFYECCKEPYPDVTFTVTMRRRMGYYLIQMYIPSLLIVILSWISFWINMDAAPARVGLGITTVLTMTTQSSGSRASLPKVSYVKAIDIWMAVCLLFVFSALLEYAAVNFVSRQHKELLRFRRKRRHHKSPMLNLFQEDEAGEGRFNFSAYGMGPACLQAKDGISVKGANNSNTTNPPPAPSKSPEEMRKLFIQRAKKIDKISRIGFPMAFLIFNMFYWIIYKIVRREDVHNQ
modifications: synthetic sequence of chimeric LGIC
- sensitivity to ABT-126 compared with wild type α7-nAChR ([1]; ligand ABT-126): approximately as sensitive
- fold more sensitive to AZD-0328 than wild type ([1]; ligand AZD-0328): approximately 3 fold
- fold more sensitive to Facinicline/RG3487 than wild type ([1]; ligand Facinicline/RG3487): ~10 fold
- sensitivity to TC-6987 compared with wild type α7-nAChR ([1]; ligand TC-6987): approximately as sensitive
- agonist activity of TC-6987 on the receptor ([1]; ligand TC-6987, similar to wild type): partial agonist activity
- sensitivity to acetylcholine compared with wild type α7-nAChR ([1]; ligand acetylcholine): approximately as sensitive
- fold less sensitive to nicotine than wild type ([1]; ligand nicotine): ~2 fold

B2: CODA806: engineered receptor: Y115D, L131Q in SEQ ID NO: 33 (Chemogenic receptor-11) (protein)
chain: MRCSPGGVWLALAASLLHVSLQGEFQRKLYKELVKNYNPLERPVANDSQPLTVYFSLSLLQIMDVDEKNQVLTTNIWLQMSWTDHYLQWNVSEYPGVKTVRFPDGQIWKPDILLDNSADERFDATFHTNVQVNSSGHCQYLPPGIFKSSCPMDLKNFPMDVQTCKLKFGSWSYGGWSLDLQMQEADISGYIPNGEWDLVGIPGKRSERFYECCKEPYPDVTFTVTMRRRMGYYLIQMYIPSLLIVILSWISFWINMDAAPARVGLGITTVLTMTTQSSGSRASLPKVSYVKAIDIWMAVCLLFVFSALLEYAAVNFVSRQHKELLRFRRKRRHHKSPMLNLFQEDEAGEGRFNFSAYGMGPACLQAKDGISVKGANNSNTTNPPPAPSKSPEEMRKLFIQRAKKIDKISRIGFPMAFLIFNMFYWIIYKIVRREDVHNQ
modifications: synthetic sequence of chimeric LGIC
- sensitivity to RG-3487 compared to wildtype nAchRa7 receptor [2, 4]: way more sensitive to RG-3487
- sensitivity to acetylcholine compared to wildtype nAchRa7 receptor [2, 4]: essentially insensitive to acetylcholine
- chloride current on application of RG-3487 (SA-2) ([3]; cultured adult rat DRG neurons, not observed in non-transduced cells, FIG. 3): generated chloride current in a dose dependent manner

B3: COAD1055 (protein)
chain: MRCSPGGVWLALAASLLHVSLQGEFQRKLYKELVKNYNPLERPVANDSQPLTVYFSLSLLQIMDVDEKNQVLTTNIWLQMSWTDHYLQWNVSEYPGVKTVWFPDGQIWKPDILLENSADERFDATFHTNVLVNSSGHCQYLPPGIFKSSCPMDLKNFPMDVQTCKLKFGSWSYGGWSLDLQMQEADISGYIPNGEWDLVGIPGKRSERFWECCKEPYPDVTFTVTMRRRMGYYLIQMYIPSLLIVILSWISFWINMDAAPARVGLGITTVLTMTTQSSGSRASLPKVSYVKAIDIWMAVCLLFVFSALLEYAAVNFVSRQHKELLRFRRKRRHHKSPMLNLFQEDEAGEGRFNFSAYGMGPACLQAKDGISVKGANNSNTTNPPPAPSKSPEEMRKLFIQRAKKIDKISRIGFPMAFLIFNMFYWIIYKIVRREDVHNQ
modifications: synthetic sequence of chimeric LGIC
- EC50 [2]: 16 nM
- EC50 [3]: 56 nM

B4: COAD1056 (protein)
chain: MRCSPGGVWLALAASLLHVSLQGEFQRKLYKELVKNYNPLERPVANDSQPLTVYFSLSLLQIMDVDEKNQVLTTNIWLQMSWTDHYLQWNVSEYPGVKTVFFPDGQIWKPDILLENSADERFDATFHTNVLVNSSGHCQYLPPGIFKSSCPMDLKNFPMDVQTCKLKFGSWSYGGWSLDLQMQEADISGYIPNGEWDLVGIPGKRSERFWECCKEPYPDVTFTVTMRRRMGYYLIQMYIPSLLIVILSWISFWINMDAAPARVGLGITTVLTMTTQSSGSRASLPKVSYVKAIDIWMAVCLLFVFSALLEYAAVNFVSRQHKELLRFRRKRRHHKSPMLNLFQEDEAGEGRFNFSAYGMGPACLQAKDGISVKGANNSNTTNPPPAPSKSPEEMRKLFIQRAKKIDKISRIGFPMAFLIFNMFYWIIYKIVRREDVHNQ
modifications: synthetic sequence of chimeric LGIC
- EC50 [2]: 96 nM
- EC50 [3]: 116 nM
